Experimental findings from patent publication US20090075898A1 (YEDA RESEARCH AND DEVELOPMENT CO LTD AT THE WEIZMANN …, published 2009) are described below.

By Kd is commonly meant a measure of binding affinity in units of concentration. Higher therefore signals lower affinity.

First the molecules themselves.
B2: human complement component C3a (ligand)
chain: not shown

Ends that are not written are not given here. * marks the point of attachment. Biotin = O=C1N[C@H]2[C@H](CS[C@H]2CCCCC(=O)*)N1

One experiment has as its target T1, C5a (UniProt P01031 678-751).
T1 construct: domain: C5a; Control analyte in SPR
T1 sequence (looked up): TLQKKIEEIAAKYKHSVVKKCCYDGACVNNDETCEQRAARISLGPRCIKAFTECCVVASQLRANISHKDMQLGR
The experiment can be described thus: SPR (BIACORE 2000), peptide on streptavidin chip, C5a as analyte.

The target in experiment [1] is B2. The experiment can be described thus: SPR (BIACORE 2000), biotinylated peptide on streptavidin chip, C3a as analyte; Kd = koff/kon from kobs plots; first extracellular loop of the human protein. On the technique in general: In SPR one partner is held on a chip, and binding of the other changes the refractive index at the surface.
Experiment [2] has as its target T2, multisubunit FcεRI receptor complex on rat RBL-2H3 cells and rat peritoneal mast cells (rat, UniProt P12371 24-245; P13386 1-243; P20411 19-86).
T2 sequence (looked up) 1: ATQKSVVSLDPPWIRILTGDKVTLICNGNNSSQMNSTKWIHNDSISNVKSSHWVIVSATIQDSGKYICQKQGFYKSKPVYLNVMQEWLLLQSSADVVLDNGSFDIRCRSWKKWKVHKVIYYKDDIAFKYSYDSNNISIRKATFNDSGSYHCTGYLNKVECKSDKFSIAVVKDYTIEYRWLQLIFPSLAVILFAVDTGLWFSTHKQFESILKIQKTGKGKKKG
T2 sequence (looked up) 2: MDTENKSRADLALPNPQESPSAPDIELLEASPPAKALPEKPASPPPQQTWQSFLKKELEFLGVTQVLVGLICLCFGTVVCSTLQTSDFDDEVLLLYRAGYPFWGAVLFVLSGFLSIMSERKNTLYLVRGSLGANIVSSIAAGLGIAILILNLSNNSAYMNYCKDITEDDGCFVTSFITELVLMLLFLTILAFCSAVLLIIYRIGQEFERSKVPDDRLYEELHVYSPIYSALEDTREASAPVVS
T2 sequence (looked up) 3: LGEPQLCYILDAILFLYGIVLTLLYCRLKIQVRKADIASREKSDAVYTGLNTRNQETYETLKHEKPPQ
The experiment can be described thus: cell-based or functional assay.

Experiment [3] has as its target T3, β-chain of the high affinity IgE receptor (FcεRI) on mouse bone marrow derived mast cells (mouse, UniProt P20490 1-235).
T3 sequence (looked up): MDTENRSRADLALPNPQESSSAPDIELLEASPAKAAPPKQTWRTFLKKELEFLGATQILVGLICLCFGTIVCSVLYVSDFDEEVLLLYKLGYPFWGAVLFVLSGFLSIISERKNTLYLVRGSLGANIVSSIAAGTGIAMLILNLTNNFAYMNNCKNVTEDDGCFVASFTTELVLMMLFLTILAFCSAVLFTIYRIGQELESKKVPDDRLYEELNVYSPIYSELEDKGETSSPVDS
As to the kind of experiment: cell-based or functional assay.

The target in experiment [4] is B2. As to the kind of experiment: SPR (BIACORE 2000), peptide on streptavidin chip, C3a as analyte.

B1: biotinylated peptide of the 1st extracellular loop of the human FcεRI β chain (peptide)
peptide: Biotin-SVLDISHIEGDIFSSFKAGY
notes: also called first extracellular loop of human FcεRI β-chain
With B1, the binding result with C5a is given as “no binding”. Further, the Kd in experiment [1] stood at 250 nM.

For B2, the “Inhibitory effect (IC50, µM) on the IgE-mediated degranulation of RBL-2H3” value in experiment [2] stood at 2.4 µM. Further, the “Inhibitory effect (IC50, µM) on the IgE-mediated degranulation of BMMC” value in experiment [3] was determined as 0.2 µM.

B3: biotinylated peptide of the 2nd extracellular loop of the human FcεRI β chain (peptide)
peptide: Biotin-KSLAYIHIHSCQKFFETKCFMAS
modifications: cysteine pairing not given here
notes: also called second extracellular loop of human FcεRI β-chain
For the molecule B3, the binding result (with C5a; in experiment [4]) was “no binding” each time.
